Laboratory results taken from article PMC5223167.

T1: PPE2 (Mycobacterium tuberculosis (BAC-Rv329 …, UniProt P9WI47))
T1 sequence: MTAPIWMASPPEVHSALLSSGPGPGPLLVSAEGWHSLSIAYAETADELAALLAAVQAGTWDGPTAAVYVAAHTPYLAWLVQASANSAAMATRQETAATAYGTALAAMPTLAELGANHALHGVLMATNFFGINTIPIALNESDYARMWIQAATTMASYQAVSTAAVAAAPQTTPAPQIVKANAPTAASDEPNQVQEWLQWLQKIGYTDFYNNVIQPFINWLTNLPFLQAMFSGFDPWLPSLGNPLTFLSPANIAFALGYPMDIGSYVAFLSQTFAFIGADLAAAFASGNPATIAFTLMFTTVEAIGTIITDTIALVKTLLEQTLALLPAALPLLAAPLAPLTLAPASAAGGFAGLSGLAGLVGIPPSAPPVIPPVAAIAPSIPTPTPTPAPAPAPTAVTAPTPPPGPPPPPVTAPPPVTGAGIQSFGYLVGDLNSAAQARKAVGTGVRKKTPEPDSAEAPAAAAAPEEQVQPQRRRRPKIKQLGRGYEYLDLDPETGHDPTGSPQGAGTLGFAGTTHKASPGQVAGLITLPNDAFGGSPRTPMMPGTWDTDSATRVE

B1: IRF-1 consensus (dsDNA)
DNA 1: CACTGTCAATATTTCACTTTCATAATG
DNA 2: CATTATGAAAGTGAAATATTGACAGTG
B2: inos proximal GATA-1 element (overlaps TATA box) (dsDNA)
DNA 1: GGGGTATAAATACCTGATGGCTGCTGCCAG
DNA 2: CTGGCAGCAGCCATCAGGTATTTATACCCC
B3: NF-kB consensus (dsDNA)
DNA 1: AGTTGAGGGGACTTTCCCAGGC
DNA 2: GCCTGGGAAAGTCCCCTCAACT
B4: GATA consensus (dsDNA)
DNA 1: CACTTGATAACAGAAAGTGATAACTCT
DNA 2: AGAGTTATCACTTTCTGTTATCAAGTG

What follows are binders tested against T1, PPE2 (assay: EMSA; 20 mM HEPES (pH not stated), 0.5 mM DTT, 0.5 mM EDTA, 5% glycerol, room temperature, 30 min; […]). Settings: protein: recombinant; tags: N-terminal His (pRSET A); label: 32P 5' end; blunt.
B1: no binding. B2: binds. B3: no binding. B4: binds.
